Experimental findings from patent US20140206628A1 (University of Washington, published 2014) are described below.

By Kd is commonly meant the concentration at which binding is half-saturated.

In assay [1] the target is T1, A/South Carolina/1/1918 (H1N1) hemagglutinin ectodomain, biotinylated (Influenza A virus A/South …).
Assay [2] deals with T1, A/South Carolina/1/1918 (H1N1) …. The source holds these as a separate data set.
Assay [3] has the same target. The source holds these as a separate data set.
Assay [4] shares this target. The source holds these as a separate data set.

Like-named read-outs stand apart in the source and are kept apart here.

B1: HB80.1 (Met26Thr, Asn36Lys) (designed binder)
chain: MASTRGSGRPWDFSENLAFELALAFTNKDTPDRWAKVAQYVSGRTPEEVKKHYEILVEDIKYIESGKVPFPNYRTTGGNMKTDEKRFRNLKIRLE
As to B1, the Kd in assay [1] and in assay [2] was 7.5 nM throughout.

B2: HB36.1 (Asp47Ser) (designed binder)
chain: MSNAMDGQQLNRLLLEWIGAWDPFGLGKDAYDVEAEAVLQAVYETESAFDLAMRIMWIYAFAFNRPIPFPHAQKLARRLLELKQAASSPLPLE
With B2, the “fold increase of binding affinity relative to HB36” value in assay [3] is about 40 fold. In addition, the equilibrium dissociation constant (Kd) in assay [4] is 2 to 5 nM; in assay [2], 5 nM.
